Experimental data reported in the RNAGym collection of RNA variant scans (doi:10.1073/pnas.2313332121).

B1: TPR t1 (parent)
chain: GACCAAUCUGCCCUCAGAGCUCGAGAACAUCUUCGGAUGCAGAGGAGGCAGGCUUCGGUGGCGCGAUAGCGCCAACGUCCUCAACCUCCAAUGCAUCCCACCACAUGAUGAUGCCUGAAGAGCCUUGGUUUUUUG

Variants of: B1
Assay: polymerase ribozyme fitness, log enrichment relative to wild type (log ratio); higher = more active; in vitro selection for triplet polymerase activity
Outline: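 Mutant libraries for each subunit of a heterodimeric triplet polymerase ribozyme were made by PCR and then transcribed. Each library underwent one round of in vitro selection in triplicate: annealing with a biotinylated primer, the partner subunit and triplets, frozen incubation at −7 °C, gel excision of extended constructs, streptavidin-bead capture and RT-PCR. Input and output libraries were Illumina-sequenced, and only genotypes with ≥10 input reads and ≥1 read per output were kept. Fitness is the logarithm, base 2, of genotype enrichment over wild-type enrichment, computed from inverse-variance-weighted replicate averages.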

Row | Variant | polymerase ribozyme fitness (log ratio)
1 | GACCAAUCUGCCCUCAGAGCUCGAGAACAUCUUCGGAUGCAGAGGAGGCAGGCUUCGGUGGCGCGAUAACGCCAACGUCCUCAACCUCCAAUGCAUCCCACCACAUGAUGAUGCCUGAAGAGCCUUGGAUUUUUG [G69A U129A] | -3.9
2 | GACCAAUCUGCCCUCAGAGCUCGAGAACAUCUUCGGAUGCAGAGGAGGCAGGCUUCGGUGGCGCGAUACCGCCAACGUCCUCAACCUCCUAUGCAUCCCACCACAUGAUGAUGCCUGAAGAGCCUUGGUUUUUUG [G69C A90U] | -2.68
3 | GACCAAUCUGCCCUCAGAGCUCGAGAACAUCUUCGGAUGCAGAGGAGGCAGGCUUCGGUGGCGCGAUAACGCCAACGUCCUCAACCUCCAAUGCAUCCCACCACAUGAAGAUGCCUGAAGAGCCUUGGUUUUUUG [G69A U109A] | -5.09
4 | GACCAAUCUGCCCUCAGAGCUCGAGAACAUCUUCGGAUGCAGAGGAGGCAGGCUUCGGUGGCGCGAUACCGCCAACGUCCUCGACCUCCAAUGCAUCCCACCACAUGAUGAUGCCUGAAGAGCCUUGGUUUUUUG [G69C A83G] | -2.31
5 | GACCAAUCUGCCCUCAGAGCUCGAGAACAUCUUCGGAUGCAGAGGAGGCAGGCUUCGGUGGCGCGAUAACGCCAACGUCCUCAACCUCCAAUGCAUCCCACCACACGAUGAUGCCUGAAGAGCCUUGGUUUUUUG [G69A U106C] | -3.42
6 | GACCAAUCUGCCCUCAGAGCUCGAGAACAUCUUCGGAUGCAGAGGAGGCAGGCUUCGGUGGCGCGAUAACGCCAACGUCCUCAACCUCCAAUGCAUCCCACCACAAGAUGAUGCCUGAAGAGCCUUGGUUUUUUG [G69A U106A] | -2.76
7 | GACCAAUCUGCCCUCAGAGCUCGAGAACAUCUUCGGAUGCAGAGGAGGCAGGCUUCGGUGGCGCGAUACCGCCAACGUCCUCAACCUCCAAUGCAUCCCACCACAUGAUGAUGCCUGAAGGGCCUUGGUUUUUUG [G69C A121G] | 0.734
8 | GACCAAUCUGCCCUCAGAGCUCGAGAACAUCUUCGGAUGCAGAGGAGGCAGGCUUCGGUGGCGCGAUACCGCCAACGUCCUCAGCCUCCAAUGCAUCCCACCACAUGAUGAUGCCUGUAGAGCCUUAGUUUUUUG [G69C A84G A118U G127A] | -2.68
9 | GACCAAUCUGCCCUCAGAGCUCGAGAACAUCUUCGGAUGCAGAGGAGGCAGGCUUCGGUGGCGCGAUACUGCCAACGUCCUCAACCUCCAAUGCAUCCCACCACAUGAUGAUGCCUGAAGAGCCUUGGUUUUUUG [G69C C70U] | -3.87
10 | GACCAAUCUGCCCUCAGAGCUCGAGAACAUCUUCGGAUGCAGAGGAGGCAGGCUUCGGUGGCGCGAUAACGCCAACGUCCUCAACCUCCAAUGCAUCCCACCACAUGAUGAUGCCUUAAGAGCCUUGGUUUUUUG [G69A G117U] | -5.17
11 | GACCAAUCUGCCCUCAGAGCUCGAGAACAUCUUCGGAUGCAGAGGAGGCAGGCUUCGGUGGCGCGAUACCGCCAACGUCCUCGACCUCCAAUGCAUCCCACCACAUGAUGAUGCCUGAACAGCCUUGGUUUUUUG [G69C A83G G120C] | -1.54
12 | GACCAAUCUGCCCUCAGAGCUCGAGAACAUCUUCGGAUGCAGAGGAGGCAGGCUUCGGUGGCGCGAUAACGCCAACGUCCUCAACCUCCAAUGCAUCCCACCACAUGAUGAAGCCUGAAGAGCCUUGGUUUUUUG [G69A U112A] | -2.26
13 | GACCAAUCUGCCCUCAGAGCUCGAGAACAUCUUCGGAUGCAGAGGAGGCAGGCUUCGGUGGCGCGAUAACGCCAACGUCCUCAACCUCCAAUGCAUCCCACCACAUGAUGACGCCUGAAGAGCCUUGGUUUUUUG [G69A U112C] | -0.685
14 | GACCAAUCUGCCCUCAGAGCUCGAGAACAUCUUCGGAUGCAGAGGAGGCAGGCUUCGGUGGCGCGAUAACGCCAACGUCCCCAACCUCCAAUGCAUCCCACCACAUGAUGAUGCCUGAAGAGCCUUGGUUUUUUG [G69A U81C] | -2.71
15 | GACCAAUCUGCCCUCAGAGCUCGAGAACAUCUUCGGAUGCAGAGGAGGCAGGCUUCGGUGGCGCGAUAACGCCAACGUCCGCAACCUCCAAUGCAUCCCACCACAUGAUGAUGCCUGAAGAGCCUUGGUUUUUUG [G69A U81G] | -6.79
16 | GACCAAUCUGCCCUCAGAGCUCGAGAACAUCUUCGGAUGCAGAGGAGGCAGGCUUCGGUGGCGCGAUAACGCCAACGUCCUCAACCUCCAAUGCAUCCCACCACAUGAUUAUGCCUGAAGAGCCUUGGUUUUUUG [G69A G110U] | -3.36
17 | GACCAAUCUGCCCUCAGAGCUCGAGAACAUCUUCGGAUGCAGAGGAGGCAGGCUUCGGUGGCGCGAUAACGCCAACGUCCUCAACCUCCAAUGCAUCCCACCACAUGAUGAUGCCUGAAGAGCCUUAGUUUUUUG [G69A G127A] | -4.05
18 | GACCAAUCUGCCCUCAGAGCUCGAGAACAUCUUCGGAUGCAGAGGAGGCAGGCUUCGGUGGCGCGAUACCGCCAACGUCCUCAACCUCCAUUGCAUCCCACCACAUGAUGAUGCCUGAAGAGCCUUGGUUUUUUG [G69C A91U] | -3.08
19 | GACCAAUCUGCCCUCAGAGCUCGAGAACAUCUUCGGAUGCAGAGGAGGCAGGCUUCGGUGGCGCGAUAACGCCAACGUCCUCAACCUCCAAUGCAUCCCACCACAUGAUGAUGCCUGAAGAACCUUGGUUUUUUG [G69A G122A] | -2.53
20 | GACCAAUCUGCCCUCAGAGCUCGAGAACAUCUUCGGAUGCAGAGGAGGCAGGCUUCGGUGGCGCGAUACUGCCAACGUCUUCAACCUCCAAUGCAUCCCACCACAUGAUGAGGCCUUUAGAGCCUUGGUUUUUUG [G69C C70U C80U U112G G117U A118U] | -7.19
21 | GACCAAUCUGCCCUCAGAGCUCGAGAACAUCUUCGGAUGCAGAGGAGGCAGGCUUCGGUGGCGCGAUAACGCCAACGUCCUCAACCUCCAAUGCAUCCCACCACAUGAUGAUACCUGAAGUGCCUUGGUUUUUUG [G69A G113A A121U] | -1.68

Row | Variant | polymerase ribozyme fitness (log ratio)
22 | GACCAAUCUGCCCUCAGAGCUCGAGAACAUCUUCGGAUGCAGAGGAGGCAGGCUUCGGUGGCGCGAUACCGCCAACGUCCUCACCCUCCAAUGCAUCCCACCACAUGAUGAUGCCUGAAGAGCCUUGCUUUUUUG [G69C A84C G128C] | -4.09
23 | GACCAAUCUGCCCUCAGAGCUCGAGAACAUCUUCGGAUGCAGAGGAGGCAGGCUUCGGUGGCGCGAUACCGCCAACGUCCUCAACCUCCAAUGCAUCCCACCACAUGAUGCUGCCUGAAGAGCCUUGGUUUUUUG [G69C A111C] | -0.894
24 | GACCAAUCUGCCCUCAGAGCUCGAGAACAUCUUCGGAUGCAGAGGAGGCAGGCUUCGGUGGCGCGAUAACGCCAACGGCCUCAACCUCCAAUGCAUCCCACCACAUGAUGAUGCCUGAAGAGCCUUGGUUUUUUG [G69A U78G] | -2.63
25 | GACCAAUCUGCCCUCAGAGCUCGAGAACAUCUUCGGAUGCAGAGGAGGCAGGCUUCGGUGGCGCGAUAACGCCAACGCCCUCAACCUCCAAUGCAUCCCACCACAUGAUGAUGCCUGAAGAGCCUUGGUUUUUUG [G69A U78C] | -2.5
26 | GACCAAUCUGCCCUCAGAGCUCGAGAACAUCUUCGGAUGCAGAGGAGGCAGGCUUCGGUGGCGCGAUAACGCCAACGACCUCAACCUCCAAUGCAUCCCACCACAUGAUGAUGCCUGAAGAGCCUUGGUUUUUUG [G69A U78A] | -2.94
27 | GACCAAUCUGCCCUCAGAGCUCGAGAACAUCUUCGGAUGCAGAGGAGGCAGGCUUCGGUGGCGCGAUACCGCCAACGUCCUCAACCUCCACUGCAUCCCACCACAUGAUGAUUCCUGAAGAGCCUUGGUUUUUUG [G69C A91C G113U] | -4.43
28 | GACCAAUCUGCCCUCAGAGCUCGAGAACAUCUUCGGAUGCAGAGGAGGCAGGCUUCGGUGGCGCGAUAACGCCAACGUCCUCAACCCCCAAUGCAUCCCACCACAUGAUGAUGCCUGAAGAGCCUUGGUUUUUUG [G69A U87C] | -2.12
29 | GACCAAUCUGCCCUCAGAGCUCGAGAACAUCUUCGGAUGCAGAGGAGGCAGGCUUCGGUGGCGCGAUAACGCCAACGUCCUCAACCGCCAAUGCAUCCCACCACAUGAUGAUGCCUGAAGAGCCUUGGUUUUUUG [G69A U87G] | -2.08
30 | GACCAAUCUGCCCUCAGAGCUCGAGAACAUCUUCGGAUGCAGAGGAGGCAGGCUUCGGUGGCGCGAUAACGCCAACGUCCUCAACCUCCAAUGCAGCCCACCACAUGAUGAUGCCUGAAGCGCCUUGGUUUUUUG [G69A U96G A121C] | -1.72
31 | GACCAAUCUGCCCUCAGAGCUCGAGAACAUCUUCGGAUGCAGAGGAGGCAGGCUUCGGUGGCGCGAUAACGCCAACGUCCUCAACCUCCAAUGCAUCCCACCACAUGAUGAUCCCUGAAGAGCCUUGGUUUUUUG [G69A G113C] | -3.4
32 | GACCAAUCUGCCCUCAGAGCUCGAGAACAUCUUCGGAUGCAGAGGAGGCAGGCUUCGGUGGCGCGAUAACGCCAACGUCCUCAACCUCCAAUGCAUCCCACCACAUGAUGAUUCCUGAAGAGCCUUGGUUUUUUG [G69A G113U] | -5.37
33 | GACCAAUCUGCCCUCAGAGCUCGAGAACAUCUUCGGAUGCAGAGGAGGCAGGCUUCGGUGGCGCGAUAACGCCAACGUCCUCAACCUCCAAUGCAUCCCACCACAUGAUGAUACCUGAAGAGCCUUGGUUUUUUG [G69A G113A] | -2.7
34 | GACCAAUCUGCCCUCAGAGCUCGAGAACAUCUUCGGAUGCAGAGGAGGCAGGCUUCGGUGGCGCGAUACCGCCAACGUCCUCAACCUCCAAUGCAUCCCACCACUUGAUGAGGCCUGAAGAGCCUUGGUUUUUUG [G69C A105U U112G] | -3.4
35 | GACCAAUCUGCCCUCAGAGCUCGAGAACAUCUUCGGAUGCAGAGGAGGCAGGCUUCGGUGGCGCGAUACCGCCAACGUCCUCAACCUCCAAUGCAUCCCACCACAUGAUGAUGCCUGAUGAGCCUUGGUUUUUUG [G69C A119U] | -1.32
36 | GACCAAUCUGCCCUCAGAGCUCGAGAACAUCUUCGGAUGCAGAGGAGGCAGGCUUCGGUGGCGCGAUACCGCCAACGUCCUCAACCUCCAAUGCAUCCCACCACAUGAUGAUGCCUGAGGAGCCUUGGUUUUUUG [G69C A119G] | -0.227
37 | GACCAAUCUGCCCUCAGAGCUCGAGAACAUCUUCGGAUGCAGAGGAGGCAGGCUUCGGUGGCGCGAUACAGCCAACGUCCUCAACCUCCAAUGCAUCCCACCACAUGAUGAUGCCUAAAGGGCCUUGGUUUUUUG [G69C C70A G117A A121G] | -6.08
38 | GACCAAUCUGCCCUCAGAGCUCGAGAACAUCUUCGGAUGCAGAGGAGGCAGGCUUCGGUGGCGCGAUACCGCCAACGUCCUCACCCUCCAAUGCAUCCCACCACAUGAUGAUGCCUGAAGAGCCAUGGUUUUUUG [G69C A84C U125A] | -2.42
39 | GACCAAUCUGCCCUCAGAGCUCGAGAACAUCUUCGGAUGCAGAGGAGGCAGGCUUCGGUGGCGCGAUAACGCCAACGUCCUCAACCUCCAAUGCAUCCCACCACAUGAUGAUGCCUGAAGAGCCUUGGUGUUUUG [G69A U130G] | -2.69
40 | GACCAAUCUGCCCUCAGAGCUCGAGAACAUCUUCGGAUGCAGAGGAGGCAGGCUUCGGUGGCGCGAUAACGCCAACGUCCUCAACCUCCAAUGCAUCCCACCACAUGAUGAUGCCUGAAGAGCCUUGGUCUUUUG [G69A U130C] | -3.09
41 | GACCAAUCUGCCCUCAGAGCUCGAGAACAUCUUCGGAUGCAGAGGAGGCAGGCUUCGGUGGCGCGAUAACGCCAACGUCCUCAACCUCCAAUGCAUCCCACCACAUGAUGAUGCCUGAAGAGCCUUGGUAUUUUG [G69A U130A] | -3.11
42 | GACCAAUCUGCCCUCAGAGCUCGAGAACAUCUUCGGAUGCAGAGGAGGCAGGCUUCGGUGGCGCGAUACCGUCAACGUCCUCAACCUCCAACGCAUCCCAUCACAUGAUGAUGCCUUAAGAGCCUUGGUUUUUUG [G69C C72U U92C C101U G117U] | -5.11
